Here are results for six molecules from patent publication US20180086849A1 (Hoffmann-La Roche, published 2018).

Changes are numbered by the printed parent chain.

Assay [1] concerns the target human MCSP (Melanoma-associated Chondroitin Sulfate Proteoglycan) on cells (human, UniProt Q6UVK1 30-2322). Put plainly: cell-based or functional assay.
In assay [2] the target is T1, hu-MCSP(D3 domain)-avi-his (human, UniProt Q6UVK1 1582-2224, biotinylated where used for selection or for coupling to the SA chip).
T1 construct: also called human MCSP(D3 domain)-avi-his; human MCSP D3
T1 sequence: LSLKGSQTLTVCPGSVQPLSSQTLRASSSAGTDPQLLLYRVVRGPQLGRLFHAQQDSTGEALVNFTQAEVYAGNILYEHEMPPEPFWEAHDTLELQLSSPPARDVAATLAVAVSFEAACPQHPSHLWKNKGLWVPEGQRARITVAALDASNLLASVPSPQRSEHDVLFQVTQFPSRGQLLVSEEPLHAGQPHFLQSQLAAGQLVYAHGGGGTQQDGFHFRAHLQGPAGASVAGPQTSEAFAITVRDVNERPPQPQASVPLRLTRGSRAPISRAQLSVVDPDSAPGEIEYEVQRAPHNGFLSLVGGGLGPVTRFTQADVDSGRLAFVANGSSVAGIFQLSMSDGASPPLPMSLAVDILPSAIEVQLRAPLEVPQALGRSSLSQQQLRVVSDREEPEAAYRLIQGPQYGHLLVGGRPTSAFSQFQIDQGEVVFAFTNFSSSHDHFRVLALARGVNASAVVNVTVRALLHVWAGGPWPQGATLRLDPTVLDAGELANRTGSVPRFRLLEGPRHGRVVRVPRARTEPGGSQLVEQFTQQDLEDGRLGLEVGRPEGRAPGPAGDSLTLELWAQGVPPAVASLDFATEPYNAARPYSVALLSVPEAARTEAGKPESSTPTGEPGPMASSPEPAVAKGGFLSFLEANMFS
The experiment in a line: SPR (ProteOn XPR36), IgG KD against parental M4-3/ML2. Here is the method:
(§1) Briefly, carboxymethylated dextran biosensor chips (CM5, GE Healthcare) were activated with N-ethyl-N′-(3-dimethylaminopropyl)-carbodiimide hydrochloride (EDC) and N-hydroxysuccinimide (NHS) according to the supplier's instructions. Anti-human F(ab′)2 fragment specific capture antibody was diluted with 10 mM sodium acetate, pH 5.0 at 50 μg/ml before injection at a flow rate of 10 μl/minute to achieve approximately up to 10.000 response units (RU) of coupled capture antibody. Following the injection of the capture antibody, 1 M ethanolamine was injected to block unreacted groups. For kinetics measurements, Fabs from bacterial supernatant or purified Fabs are injected at a flow rate of 10 ul/minute for 300 s and a dissociation of 300 s for capture baseline stabilization. […] The surface of the sensorchip was regenerated by injection of glycine pH 1.5 for 30 s at 90 ul/min followed by injection of NaOH for 20 s at the same flow rate. Association rates (kon) and dissociation rates (koff) were calculated using a simple one-to-one Langmuir binding model (ProteOn XPR36 Evaluation Software or Scrubber software (BioLogic)) by simultaneously fitting the association and dissociation sensorgrams. The equilibrium dissociation constant (KD) was calculated as the ratio koff/kon. […] Since CDR1 and 2 of the light chain were randomized independent from CDR3, the obtained CDRs were combined during IgG conversion.
(§2) In the IgG format affinities were measured again to the human MCSP antigen (SEQ ID NO. 390), in addition also to the cynomolgus homologue (SEQ ID NO. 389). Method exactly as described for the Fab fragments, just purified IgG from mammalian production were used.

Another assay addresses T2, cynomolgus MCSP D3 (cynomolgus, UniProt Q6UVK1 1582-2224 (human entry)).
T2 construct: also called cynomolgus homologue; not shown: C-terminal tag
T2 chain: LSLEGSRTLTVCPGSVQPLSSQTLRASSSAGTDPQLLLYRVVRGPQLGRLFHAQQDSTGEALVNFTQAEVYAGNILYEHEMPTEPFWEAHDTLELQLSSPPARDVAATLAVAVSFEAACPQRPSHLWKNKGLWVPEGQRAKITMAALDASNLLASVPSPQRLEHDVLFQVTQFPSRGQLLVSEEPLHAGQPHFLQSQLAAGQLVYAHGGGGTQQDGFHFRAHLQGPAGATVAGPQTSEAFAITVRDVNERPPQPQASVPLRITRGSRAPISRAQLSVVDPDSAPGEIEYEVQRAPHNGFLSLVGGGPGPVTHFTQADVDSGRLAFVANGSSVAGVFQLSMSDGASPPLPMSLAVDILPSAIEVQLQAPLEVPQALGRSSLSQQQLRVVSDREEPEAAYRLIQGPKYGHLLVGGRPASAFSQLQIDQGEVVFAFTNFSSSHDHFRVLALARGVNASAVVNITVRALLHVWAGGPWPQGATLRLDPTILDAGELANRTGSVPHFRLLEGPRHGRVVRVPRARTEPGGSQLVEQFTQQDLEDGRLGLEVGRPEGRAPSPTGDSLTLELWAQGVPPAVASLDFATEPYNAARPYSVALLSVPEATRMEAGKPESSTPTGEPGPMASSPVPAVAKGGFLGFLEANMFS
Described as above. How it is done:
as §1, §2

Sequence of human MCSP (Melanoma-associated Chondroitin Sulfate Proteoglycan) on cells (Q6UVK1 30-2322): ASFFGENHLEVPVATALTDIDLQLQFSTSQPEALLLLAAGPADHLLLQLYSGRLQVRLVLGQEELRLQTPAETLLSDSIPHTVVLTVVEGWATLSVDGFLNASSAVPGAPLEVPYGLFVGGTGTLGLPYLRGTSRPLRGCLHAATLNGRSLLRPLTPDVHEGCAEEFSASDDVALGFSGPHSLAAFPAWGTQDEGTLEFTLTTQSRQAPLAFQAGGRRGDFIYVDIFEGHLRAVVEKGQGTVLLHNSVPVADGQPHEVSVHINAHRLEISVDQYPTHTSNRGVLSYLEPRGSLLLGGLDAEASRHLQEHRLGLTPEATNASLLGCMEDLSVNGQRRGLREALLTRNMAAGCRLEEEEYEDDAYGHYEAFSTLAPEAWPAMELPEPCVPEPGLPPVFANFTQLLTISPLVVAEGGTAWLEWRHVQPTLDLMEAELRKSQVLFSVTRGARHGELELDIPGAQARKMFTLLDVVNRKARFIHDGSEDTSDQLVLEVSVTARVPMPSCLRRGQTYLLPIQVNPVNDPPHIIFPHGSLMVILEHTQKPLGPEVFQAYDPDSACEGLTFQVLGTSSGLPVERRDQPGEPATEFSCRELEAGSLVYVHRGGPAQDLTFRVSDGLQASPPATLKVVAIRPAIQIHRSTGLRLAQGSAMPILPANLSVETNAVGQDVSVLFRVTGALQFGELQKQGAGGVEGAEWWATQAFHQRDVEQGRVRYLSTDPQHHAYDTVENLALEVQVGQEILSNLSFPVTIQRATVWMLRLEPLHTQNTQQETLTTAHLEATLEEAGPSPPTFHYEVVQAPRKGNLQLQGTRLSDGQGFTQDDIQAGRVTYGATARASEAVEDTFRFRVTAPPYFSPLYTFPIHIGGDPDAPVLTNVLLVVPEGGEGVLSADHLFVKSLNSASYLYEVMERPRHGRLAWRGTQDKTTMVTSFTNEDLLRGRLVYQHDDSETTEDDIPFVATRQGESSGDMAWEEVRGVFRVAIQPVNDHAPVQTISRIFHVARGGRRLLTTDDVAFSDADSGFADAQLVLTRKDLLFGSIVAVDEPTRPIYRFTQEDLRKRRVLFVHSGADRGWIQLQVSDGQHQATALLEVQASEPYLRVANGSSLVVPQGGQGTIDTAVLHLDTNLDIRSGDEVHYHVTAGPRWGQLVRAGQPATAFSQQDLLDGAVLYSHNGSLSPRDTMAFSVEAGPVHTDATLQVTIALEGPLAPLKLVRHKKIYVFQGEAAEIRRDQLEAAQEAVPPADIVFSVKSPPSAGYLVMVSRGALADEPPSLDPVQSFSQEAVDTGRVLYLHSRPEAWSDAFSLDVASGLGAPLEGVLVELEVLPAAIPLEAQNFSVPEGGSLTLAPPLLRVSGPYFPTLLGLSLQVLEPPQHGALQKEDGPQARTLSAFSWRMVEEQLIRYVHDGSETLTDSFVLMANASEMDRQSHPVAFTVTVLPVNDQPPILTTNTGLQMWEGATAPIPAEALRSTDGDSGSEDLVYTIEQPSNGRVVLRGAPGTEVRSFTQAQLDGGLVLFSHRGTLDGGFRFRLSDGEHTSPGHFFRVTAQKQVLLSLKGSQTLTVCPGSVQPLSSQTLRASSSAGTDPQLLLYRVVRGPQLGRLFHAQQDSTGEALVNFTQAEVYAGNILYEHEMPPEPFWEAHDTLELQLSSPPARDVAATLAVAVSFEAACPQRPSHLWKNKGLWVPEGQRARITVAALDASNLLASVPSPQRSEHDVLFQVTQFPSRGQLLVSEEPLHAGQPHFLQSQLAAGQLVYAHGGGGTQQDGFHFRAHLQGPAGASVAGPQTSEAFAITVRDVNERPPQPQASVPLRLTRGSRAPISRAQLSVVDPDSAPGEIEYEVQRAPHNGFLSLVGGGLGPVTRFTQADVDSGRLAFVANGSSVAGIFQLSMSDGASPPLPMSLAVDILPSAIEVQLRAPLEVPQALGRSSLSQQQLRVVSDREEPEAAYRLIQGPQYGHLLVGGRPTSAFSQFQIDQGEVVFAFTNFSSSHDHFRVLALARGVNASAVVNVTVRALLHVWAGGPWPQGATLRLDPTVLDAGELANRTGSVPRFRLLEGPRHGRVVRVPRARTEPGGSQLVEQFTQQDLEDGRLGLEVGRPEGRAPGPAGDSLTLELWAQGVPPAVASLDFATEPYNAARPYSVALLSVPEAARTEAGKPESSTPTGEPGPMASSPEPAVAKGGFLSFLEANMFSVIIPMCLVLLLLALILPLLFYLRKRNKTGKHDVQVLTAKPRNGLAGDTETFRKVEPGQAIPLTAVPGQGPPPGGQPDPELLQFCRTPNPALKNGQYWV

B1: 1+1 IgG Crossfab; VL/VH exchange (LC007/V9), anti-MCSP/anti-huCD3 (bispecific antibody)
chain 1: DIVLTQSPSSLSASLGDRVTISCSASQGIRNYLNWYQQRPDGTVKLLIYYTSSLHSGVPSRFSGSGSGTDYSLTISNLEPEDIATYYCQQYSKLPWTFGGGTKLEIKRTVAAPSVFIFPPSDEQLKSGTASVVCLLNNFYPREAKVQWKVDNALQSGNSQESVTEQDSKDSTYSLSSTLTLSKADYEKHKVYACEVTHQGLSSPVTKSFNRGEC
chain 2: DIQMTQSPSSLSASVGDRVTITCRASQDIRNYLNWYQQKPGKAPKLLIYYTSRLESGVPSRFSGSGSGTDYTLTISSLQPEDFATYYCQQGNTLPWTFGQGTKVEIKSSASTKGPSVFPLAPSSKSTSGGTAALGCLVKDYFPEPVTVSWNSGALTSGVHTFPAVLQSSGLYSLSSVVTVPSSSLGTQTYICNVNHKPSNTKVDKKVEPKSCGGGGSGGGGSEVQLQESGPGLVKPSQSLSLTCSVTGYSITSGYYWNWIRQFPGNKLEWMGYITYDGSNNYNPSLKNRISITRDTSKNQFFLKLNSVTTEDTATYYCADFDYWGQGTTLTVSSASTKGPSVFPLAPSSKSTSGGTAALGCLVKDYFPEPVTVSWNSGALTSGVHTFPAVLQSSGLYSLSSVVTVPSSSLGTQTYICNVNHKPSNTKVDKKVEPKSCDKTHTCPPCPAPEAAGGPSVFLFPPKPKDTLMISRTPEVTCVVVDVSHEDPEVKFNWYVDGVEVHNAKTKPREEQYNSTYRVVSVLTVLHQDWLNGKEYKCKVSNKALGAPIEKTISKAKGQPREPQVCTLPPSRDELTKNQVSLSCAVKGFYPSDIAVEWESNGQPENNYKTTPPVLDSDGSFFLVSKLTVDKSRWQQGNVFSCSVMHEALHNHYTQKSLSLSPGK
chain 3: EVQLVESGGGLVQPGGSLRLSCAASGYSFTGYTMNWVRQAPGKGLEWVALINPYKGVSTYNQKFKDRFTISVDKSKNTAYLQMNSLRAEDTAVYYCARSGYYGDSDWYFDVWGQGTLVTVSSASVAAPSVFIFPPSDEQLKSGTASVVCLLNNFYPREAKVQWKVDNALQSGNSQESVTEQDSKDSTYSLSSTLTLSKADYEKHKVYACEVTHQGLSSPVTKSFNRGEC
chain 4: not shown
Turning to B1, in assay [1], the “EC50 of T cell-mediated killing (LDH release) of MV-3 cells, human PBMCs, 21 h” value is 0.0409 nM and the “EC50 of T cell-mediated killing (LDH release) of WM266-4 cells, human PBMCs, 21 h” value is 0.0284 nM.

B2: 1+1 CrossMab; CL/CH1 exchange (LC007/V9), anti-MCSP/anti-huCD3 (bispecific antibody, human IgG1, kappa, L234A L235A)
chain 1: B1 chain 1
chain 2: EVQLQESGPGLVKPSQSLSLTCSVTGYSITSGYYWNWIRQFPGNKLEWMGYITYDGSNNYNPSLKNRISITRDTSKNQFFLKLNSVTTEDTATYYCADFDYWGQGTTLTVSSASTKGPSVFPLAPSSKSTSGGTAALGCLVKDYFPEPVTVSWNSGALTSGVHTFPAVLQSSGLYSLSSVVTVPSSSLGTQTYICNVNHKPSNTKVDKKVEPKSCDKTHTCPPCPAPEAAGGPSVFLFPPKPKDTLMISRTPEVTCVVVDVSHEDPEVKFNWYVDGVEVHNAKTKPREEQYNSTYRVVSVLTVLHQDWLNGKEYKCKVSNKALGAPIEKTISKAKGQPREPQVCTLPPSRDELTKNQVSLSCAVKGFYPSDIAVEWESNGQPENNYKTTPPVLDSDGSFFLVSKLTVDKSRWQQGNVFSCSVMHEALHNHYTQKSLSLSPGK
chain 3: DIQMTQSPSSLSASVGDRVTITCRASQDIRNYLNWYQQKPGKAPKLLIYYTSRLESGVPSRFSGSGSGTDYTLTISSLQPEDFATYYCQQGNTLPWTFGQGTKVEIKSSASTKGPSVFPLAPSSKSTSGGTAALGCLVKDYFPEPVTVSWNSGALTSGVHTFPAVLQSSGLYSLSSVVTVPSSSLGTQTYICNVNHKPSNTKVDKKVEPKSC
chain 4: not shown
For B2, in assay [1], the “EC50 of T cell-mediated killing (LDH release) of MV-3 cells, human PBMCs, 21 h” value came to 0.0884 nM and the “EC50 of T cell-mediated killing (LDH release) of WM266-4 cells, human PBMCs, 21 h” value is 0.0539 nM.

B3: 2+1 IgG Crossfab; VL/VH exchange (M4-3 ML2/V9), anti-MCSP/anti-huCD3 (bispecific antibody)
chain 1: B1 chain 3
chain 2: not shown
chain 3: not shown
chain 4: QVQLQESGPGLVKPSQTLSLTCTVSGGSITSGYYWNWIRQHPGKGLEWIGYITYDGSNNYNPSLKSRVTISRDTSKNQFSLKLSSVTAADTAVYYCADFDYWGQGTLVTVSSASTKGPSVFPLAPSSKSTSGGTAALGCLVKDYFPEPVTVSWNSGALTSGVHTFPAVLQSSGLYSLSSVVTVPSSSLGTQTYICNVNHKPSNTKVDKKVEPKSCDKTHTCPPCPAPEAAGGPSVFLFPPKPKDTLMISRTPEVTCVVVDVSHEDPEVKFNWYVDGVEVHNAKTKPREEQYNSTYRVVSVLTVLHQDWLNGKEYKCKVSNKALGAPIEKTISKAKGQPREPQVCTLPPSRDELTKNQVSLSCAVKGFYPSDIAVEWESNGQPENNYKTTPPVLDSDGSFFLVSKLTVDKSRWQQGNVFSCSVMHEALHNHYTQKSLSLSPGK
For B3, in assay [1], the “EC50 of T cell-mediated killing (LDH release) of MV-3 cells, human PBMCs, 27 h” value was approximately 0.0822 nM and the “EC50 of T cell-mediated killing (LDH release) of WM266-4 cells, human PBMCs, 26 h” value was 0.0168 nM.

B4: M4-3/ML2 (E10/G3) (IgG) (antibody, V domains shown)
VH: QVQLQESGPGLVKPSQTLSLTCTVSGGSITSGYYWNWIRQHPGKGLEWIGYITYDGSNNYNPSLKSRVTISRDTSKNQFSLKLSSVTAADTAVYYCADFDYWGQGTLVTVSS
VL: DIQMTQSPSSLSASVGDRVTITCRASYGIRGYLNWYQQKPGKAPKLLIYYTSSLHSGVPSRFSGSGSGTDFTLTISSLQPEDFATYHCQQYSALPWTFGQGTKVEIK
notes: Human IgG1 format
Regarding B4, the “Comparative binding affinity - Fold increase over parent” value in assay [2] came to 5 fold; with cynomolgus MCSP D3, 2.2 fold.

B5: M4-3(C1)/ML2(G3) (IgG) (antibody, V domains shown)
VH: B4 VH with Y54F
VL: DIQMTQSPSSLSASVGDRVTITCRASQGIRNYLNWYQQKPGKAPKLLIYYTSSLHSGVPSRFSGSGSGTDYTLTISSLQPEDFATYYCQQYSALPWTFGQGTKVEIKR
notes: Human IgG1; also called MCSP M4-3(C1) ML2(G3)
With B5, the “Comparative binding affinity - Fold increase over parent” value in assay [2] amounted to 28.6 fold; in the assay with cynomolgus MCSP D3, 10 fold.

B6: 2+1 IgG Crossfab; CL/CH1 exchange (M4-3 ML2/V9), anti-MCSP/anti-huCD3 (bispecific antibody)
chain 1: B2 chain 3
chain 2: not shown
chain 3: B3 chain 4
chain 4: not shown
For the molecule B6, in assay [1], the “EC50 of T cell-mediated killing (LDH release) of MV-3 cells, human PBMCs, 27 h” value is approximately 0.0117 nM and the “EC50 of T cell-mediated killing (LDH release) of WM266-4 cells, human PBMCs, 26 h” value came to 0.0129 nM.
